The values that follow come from patent publication US20180016324A1 (Regeneron, published 2018).

Test [1] deals with T1, ZIKV (prM80E) with a C-terminal myc-myc-hexahistidine tag (Zika virus, UniProt A0A024B7W1 104-694).
T1 construct: also called ZIKV (prM80E)-mmH; ZIKV-mmH
Briefly: SPR, mAb captured, 37C.

Test [2] deals with T1, ZIKV (prM80E) with a C-terminal …. The test can be described thus: SPR, mAb captured, 37C. This is another data set of the same source. A general note: Surface plasmon resonance follows binding to a sensor surface in real time, without labels.
Test [3] has the same target. Briefly: SPR, mAb captured, 37C, pH 6.0 chase.
Test [4] shares this target. Briefly: SPR, mAb captured, 37C, pH 5.0 chase.
Test [5] deals with T2, ZIKV prM/E polyprotein on virus-like particles (VLPs) from HEK293T/17 cells (Zika virus, UniProt A0A024B7W1 123-795).
T2 construct: also called ZIKV prM/E VLPs; Zika prM/E VLPs
The test can be described thus: MSD ECL, VLPs on plate.

Test [6] concerns the target T1, ZIKV (prM80E) with a C-terminal …. Briefly: SPR, mAb captured, 37C. The source holds these as a separate data set.
Test [7] shares this target. Briefly: SPR, mAb captured, 37C, pH 5.5 chase.
Test [8] shares this target. Briefly: SPR, mAb captured, 37C, pH 7.4.
The target is the same in test [9]. The test can be described thus: SPR, mAb captured, 25C.
Test [10] deals with ZIKV envelope glycoprotein (E) of strain FLR (Colombia 2015) (Zika virus). The test can be described thus: cell-based or functional assay.
Test [11] concerns the target ZIKV envelope glycoprotein (E) of strain MR766 (Uganda 1947) (Zika virus, UniProt Q32ZE1 291-790). The test can be described thus: cell-based or functional assay.
For test [12], the target named is ZIKV envelope glycoprotein (E) of strain PRVABC59 (Puerto Rico 2015) (Zika virus). The test can be described thus: cell-based or functional assay.

One may read the Kd as the equilibrium constant for the complex coming apart. One may read the koff as the first-order rate constant of dissociation. Low values mean a long-lived complex, high ones a short-lived complex. One may read the kon as a measure of how fast the partners come together. High values mean fast association, low ones slow association. By t½ is commonly meant the time in which the quantity being followed falls by half. A low value points to rapid decline. Usually EC50 stands for the concentration that produces a half-maximal response.

B1: H4H25637P (antibody, V domains shown)
VH: QLQLQESGPGLVKPSETLSLTCTVSGDSISSSNYFWGWIRQPPGKGLEWIGNIYYSGDTYYNPSLKSRVTMSVDTSKKQFSLKLRSVTAADTAVYYCARGRPYYDFWSGYFDYWGQGTLVTVSS
VL: EIVLTQSPGTLSLSPGERATLPCRASQSVSSSYLAWYQQKPGQAPRLLIYGASSRATGIPDRFRGSGSGTDFTLTISRLEPEDFAVYYCQQYGTAPWTFGQGTKVEIK
For the molecule B1, the “t½ pH 7.4/t½ pH 6.0” value in test [1] is 0.3. The Kd was 9970 pM in [2] and 6330 pM in test [9]. The dissociation rate constant (koff) was 0.00989 s⁻¹ in test [2]; 0.00392 s⁻¹ in test [3]; 0.00228 s⁻¹ in [4]; 0.00414 s⁻¹ in test [7]; 0.0118 s⁻¹ in test [8]; 0.00391 s⁻¹ in [9]. In addition, the kon in test [2] worked out at 992000 M⁻¹ s⁻¹; in [9], 617000 M⁻¹ s⁻¹. Besides, the t½ is 1.2 min in test [2]; 2.95 min in test [3]; 5.1 min in test [4]; 2.79 min in test [7]; 0.98 min in [8]; 3 min in [9]. The EC50 in test [5] is 322 pM. Also, the “t½ pH 7.4/t½ pH 5.0” value in test [6] worked out at 0.2. Also, the “t½ pH 7.4/t½ pH 5.5” value in [6] came to 0.4. Also, the “neutralization IC50, Vero cells” value in [10] worked out at 134 pM; in [11], 67.1 pM; in test [12], 239 pM.

B2: H4H25598P (antibody, V domains shown)
VH: EVQLVESGGGLVQPGGSLRLSCAASGFTVSSNYMSWVRQAPGSGLEWVSVIYSGGITHYIGSVKGRFTISRHNSKNTLYLQMNSLRAEDTAMYYCARERYSGITGNPYGFDFWGQGTMVTVSS
VL: DIQLTQSPSFLSASVGDRVTITCWASQDISSYLAWYQQKPGIAPKLLIYSASTLQSGVPSSFSGSGSGTEFTLTISSLQPEDFATYYCQQLNIYPFTFGPGTKVDIK
As to B2, in test [1], the “t½ pH 7.4/t½ pH 6.0” value was 32.4. The Kd in test [2] was found to be 700 pM; in test [9], 156 pM. The koff turned out to be 0.000284 s⁻¹ in test [2]; 0.0129 s⁻¹ in test [3]; 0.114 s⁻¹ in [4]; 0.0741 s⁻¹ in test [7]; 0.000397 s⁻¹ in test [8]; 4.49e-05 s⁻¹ in test [9]. In addition, the results for the kon in [2] and in test [9] were 406000 M⁻¹ s⁻¹ and 289000 M⁻¹ s⁻¹, respectively. Further, the t½ in test [2] came to 40.7 min; in test [3], 0.9 min; in test [4] it was 0.1 min; in [7], 0.16 min; in test [8], 29.1 min; in test [9] it was 257 min. Besides, in [5], the EC50 amounted to 426 pM. In addition, the “t½ pH 7.4/t½ pH 5.0” value in [6] turned out to be 288. In test [6], the “t½ pH 7.4/t½ pH 5.5” value came to 187. In addition, the “neutralization IC50, Vero cells” value was 553 pM in test [10], 54.5 pM in test [11] and 398 pM in [12].

B3: H4H25602P (antibody, V domains shown)
VH: EVQLVESGGGLVQPGGSLRLSCAASGFTVSSNYMSWVRQAPGSGLEWVSVIYSGGITHYVDSVKGRFTISRHNSKNTLYLQMNSLRAEDTAMYYCARERYSGITGNPYGFDIWGQGTMVTVSS
VL: DIQLTQSPSFLSASVGDRVTITCWASQDISSYLAWYQQKPGIAPKLLIYAASTLQSGVPSRFSGSGSGTEFTLTISSLQPEDFATYYCQQLNIYPFTFGPGTKVDIK
B3: in test [1], the “t½ pH 7.4/t½ pH 6.0” value stood at 34.1. The Kd worked out at 745 pM in test [2] and 70 pM in test [9]. Also, the koff in test [2] stood at 0.000284 s⁻¹; in test [3], 0.0122 s⁻¹; in test [4], 0.097 s⁻¹; in test [7], 0.0476 s⁻¹; in [8], 0.000356 s⁻¹; in [9], 1.95e-05 s⁻¹. The kon in test [2] worked out at 381000 M⁻¹ s⁻¹; in test [9], 286000 M⁻¹ s⁻¹. In addition, the t½ in test [2] was 40.6 min; in test [3] it was 0.95 min; in test [4], 0.1 min; in test [7], 0.24 min; in test [8], 32.5 min; in [9], 592 min. The molecule also showed a concentration giving a half-maximal response (EC50) in test [5] of 1560 pM. Moreover, the “t½ pH 7.4/t½ pH 5.0” value in [6] was found to be 272. In addition, in [6], the “t½ pH 7.4/t½ pH 5.5” value is 134. Besides, the “neutralization IC50, Vero cells” value in test [10] stood at 630 pM; in [11], 53.1 pM; in test [12], 501 pM.

B4: H4H25591P (antibody, V domains shown)
VH: QVQLVESGGGVVQPGRSLRLSCAASGFTFSYSGMHWVRQAPGKGLEWVAVISYDGINKYYADSVKGRFTISRDNSKNTLYLQMNSLRPEDTAVYYCAKDRGGRFDPWGQGTLVTVSS
VL: DIQMTQSPSSLSASVGDRVTITCRASQGISNYLAWYQQKPGKVPNLLIYGASTLHSGVPSRFSGSGSGTDFTLTISSLQPADVATYYCQKYNSAPLTFGGGTKVEIK
Consider B4, for which, in test [1], the “t½ pH 7.4/t½ pH 6.0” value turned out to be 2.2. Moreover, the Kd came to 8370 pM in test [2] and 4900 pM in test [9]. Besides, the koff is 0.00682 s⁻¹ in [2]; 0.0136 s⁻¹ in test [3]; 0.0148 s⁻¹ in test [4]; 0.0184 s⁻¹ in test [7]; 0.0063 s⁻¹ in [8]; 0.00318 s⁻¹ in test [9]. Moreover, the kon came out at 816000 M⁻¹ s⁻¹ in test [2] and 649000 M⁻¹ s⁻¹ in test [9]. The t½ in test [2] turned out to be 1.7 min; in [3], 0.85 min; in [4], 0.8 min; in test [7], 0.63 min; in test [8], 1.83 min; in test [9] it was 3.6 min. In test [5], the response was half-maximal at 102 pM (EC50). Also, in test [6], the “t½ pH 7.4/t½ pH 5.0” value worked out at 2.4. The “t½ pH 7.4/t½ pH 5.5” value in [6] worked out at 2.9. The “neutralization IC50, Vero cells” value in test [10] amounted to 330 pM; in test [11], 34.3 pM; in test [12], 254 pM.

B5: H4H25641P (antibody, V domains shown)
VH: QVQLVESGGGVVQPGRSLRLSCAASGFTFSYYGMHWVRQAPGKGLEWVAVISYDASNNYYVDSVKGRFTISRDNSKNTLYLQMNSLRAEDTAVYYCAKDYGGRFDYWGQGTLVTVSS
VL: EIVLTQSPGTLSLSPGERATLSCGASQSVSSYLAWYQQKPGQTPRLLIYGASSRATGIPDRFSGSGSGTDFTLTISRLEPEDFAVYYCQQYGSSPWTFGQGTKVEIK
In the case of B5, the “t½ pH 7.4/t½ pH 6.0” value in test [1] came out at 0.8. Also, the Kd in test [2] worked out at 11900 pM; in [9], 8750 pM. Further, the koff in [2] was found to be 0.0188 s⁻¹; in test [3] it was 0.0159 s⁻¹; in test [4] it was 0.0133 s⁻¹; in test [7], 0.0204 s⁻¹; in [8], 0.0191 s⁻¹; in [9], 0.00922 s⁻¹. Besides, the values for the kon in [2] and in [9] were 1.59e+06 M⁻¹ s⁻¹ and 1.05e+06 M⁻¹ s⁻¹, respectively. Also, the t½ was determined as 0.6 min in test [2]; 0.73 min in [3]; 0.9 min in test [4]; 0.57 min in test [7]; 0.61 min in [8]; 1.3 min in test [9]. In [5], the EC50 is 2870 pM. Also, the “t½ pH 7.4/t½ pH 5.0” value in test [6] is 0.7. Besides, the “t½ pH 7.4/t½ pH 5.5” value in test [6] was determined as 1.1. For the same molecule, the “neutralization IC50, Vero cells” value in [10] came to 212 pM; in [11] it was 37.1 pM; in test [12], 356 pM.

B6: H4H25592P (antibody, V domains shown)
VH: QVQLVESGGGVVQPGRSLRLSCAASGFTFSYSGMHWVRQAPGKGLEWVAVISYDGSNKYYADSVKGRFTISRDNSNNILYLQMNSLRAEDTAVYYCAKDWGGRFDPWGQGTLVTVSS
VL: DIQMTQSPSSLSASVGDRVTITCRASQGISSYLAWYQQIPGKVPKLLIYAASTLHSGVPSRFSGSGSGTDFTLTISSLQPADVATYYCQKYNSAPLTFGGGTKVEIK
With B6, the “t½ pH 7.4/t½ pH 6.0” value in test [1] amounted to 2.9. Also, the Kd in test [2] turned out to be 1020 pM; in test [9], 502 pM. Besides, the dissociation rate constant (koff) in [2] was 0.00165 s⁻¹; in test [3], 0.00503 s⁻¹; in test [4], 0.00658 s⁻¹; in test [7], 0.00736 s⁻¹; in test [8], 0.00174 s⁻¹; in [9], 0.000676 s⁻¹. Further, the kon in test [2] amounted to 1.61e+06 M⁻¹ s⁻¹; in test [9], 1.35e+06 M⁻¹ s⁻¹. Besides, the t½ in test [2] stood at 7 min; in [3], 2.3 min; in [4], 1.8 min; in [7] it was 1.57 min; in test [8] it was 6.63 min; in [9] it was 17.1 min. Besides, the concentration for a half-maximal effect (EC50) in test [5] is 213 pM. For the same molecule, in test [6], the “t½ pH 7.4/t½ pH 5.0” value amounted to 3.8. Besides, in test [6], the “t½ pH 7.4/t½ pH 5.5” value is 4.2. Further, the “neutralization IC50, Vero cells” value amounted to 553 pM in [10], 42.6 pM in [11] and 218 pM in test [12].
